“And” between values parts separate entries of the source, which are not always exact repeats. Identical values can stand only once.
B1: GmE: wild type Glycine max EPSPS gene, SEQ ID NO.5; control group (nucleic acid)
DNA: ATGGATAGCGTGGCGGCGGCGGAAAAACCGAGCACCAGCCCGGAAATTGTGCTGGAACCGATTAAAGATTTTAGCGGCACCATTACCCTGCCGGGCAGCAAAAGCCTGAGCAACCGCATTCTGCTGCTGGCGGCGCTGAGCGAAGGCACCACCGTGGTGGATAACCTGCTGTATAGCGAAGATATTCATTATATGCTGGGCGCGCTGCGCACCCTGGGCCTGCGCGTGGAAGATGATAAAACCACCAAACAGGCGATTGTGGAAGGCTGCGGCGGCCTGTTTCCGACCAGCAAAGAAAGCAAAGATGAAATTAACCTGTTTCTGGGCAACGCGGCGACCGCGATGCGCAGCCTGACCGCGGCGGTGGTGGCGGCGGGCGGCAACGCGAGCTATGTGCTGGATGGCGTGCCGCGCATGCGCGAACGCCCGATTGGCGATCTGGTGGCGGGCCTGAAACAGCTGGGCGCGGATGTGGATTGCTTTCTGGGCACCAACTGCCCGCCGGTGCGCGTGAACGGCAAAGGCGGCCTGCCGGGCGGCAAAGTGAAACTGAGCGGCAGCGTGAGCAGCCAGTATCTGACCGCGCTGCTGATGGCGGCGCCGCTGGCGCTGGGCGATGTGGAAATTGAAATTGTGGATAAACTGATTAGCGTGCCGTATGTGGAAATGACCCTGAAACTGATGGAACGCTTTGGCGTGAGCGTGGAACATAGCGGCAACTGGGATCGCTTTCTGGTGCATGGCGGCCAGAAATATAAAAGCCCGGGCAACGCGTTTGTGGAAGGCGATGCGAGCAGCGCGAGCTATCTGCTGGCGGGCGCGGCGATTACCGGCGGCACCATTACCGTGAACGGCTGCGGCACCAGCAGCCTGCAGGGCGATGTGAAATTTGCGGAAGTGCTGGAAAAAATGGGCGCGAAAGTGACCTGGAGCGAAAACAGCGTGACCGTGAGCGGCCCGCCGCGCGATTTTAGCGGCCGCAAAGTGCTGCGCGGCATTGATGTGAACATGAACAAAATGCCGGATGTGGCGATGACCCTGGCGGTGGTGGCGCTGTTTGCGAACGGCCCGACCGCGATTCGCGATGTGGCGAGCTGGCGCGTGAAAGAAACCGAACGCATGATTGCGATTTGCACCGAACTGCGCAAACTGGGCGCGACCGTGGAAGAAGGCCCGGATTATTGCGTGATTACCCCGCCGGAAAAACTGAACGTGACCGCGATTGATACCTATGATGATCATCGCATGGCGATGGCGTTTAGCCTGGCGGCGTGCGGCGATGTGCCGGTGACCATTAAAGATCCGGGCTGCACCCGCAAAACCTTTCCGGATTATTTTGAAGTGCTGGAACGCCTGACCAAACATTAA
modifications: Glycine max
notes: control group
B2: OsE: wild type Oryza sativa EPSPS gene, SEQ ID NO.1; control group (nucleic acid, listed as Oryza sativa)
DNA: ATGGCGTCCAACGCCGCGGCTGCGGCGGCGAAGGCGGAGGAGATCGTGCTCCAGCCCATCAGGGAGATCTCCGGGGCGGTTCAGCTGCCAGGGTCCAAGTCGCTCTCCAACAGGATCCTCCTCCTCTCCGCCCTCTCCGAGGGCACAACAGTGGTGGACAACTTGCTGAACAGTGAGGATGTTCACTACATGCTTGAGGCCCTGAAAGCCCTCGGGCTCTCTGTGGAAGCAGATAAAGTTGCAAAAAGAGCTGTAGTCGTTGGCTGTGGTGGCAAGTTTCCTGTTGAGAAGGATGCGAAAGAGGAAGTGCAACTCTTCTTGGGGAACGCTGCGACTGCAATGCGACTCTTGACAGCAGCCGTGACTGCTGCTGGTGGAAATGCAACTTATGTGCTTGATGGAGTGCCACGAATGAGGGAGAGACCGATTGGTGACTTGGTTGTCGGGTTGAAACAACTTGGTGCGGATGTCGACTGTTTCCTTGGCACTGAATGCCCACCTGTTCGTGTCAAGGGAATTGGAGGACTTCCTGGTGGCAAGGTTAAGCTCTCTGGTTCCATCAGCAGTCAGTACTTGAGTGCCTTGCTGATGGCTGCTCCTTTGGCCCTTGGGGATGTGGAGATCGAAATCATTGACAAACTAATCTCCATTCCTTACGTTGAAATGACATTGAGATTGATGGAGCGTTTTGGTGTGAAGGCAGAGCATTCTGATAGTTGGGACAGATTCTATATTAAGGGAGGGCAGAAGTACAAATCTCCTGGAAATGCCTATGTTGAAGGTGATGCCTCAAGCGCGAGCTATTTCTTGGCTGGTGCTGCAATCACTGGAGGCACTGTGACAGTTCAAGGTTGTGGTACGACCAGTTTGCAGGGTGATGTCAAATTTGCTGAGGTACTTGAGATGATGGGAGCAAAGGTTACATGGACTGACACCAGTGTAACCGTAACTGGTCCACCACGTGAGCCTTATGGGAAGAAACACCTGAAAGCTGTTGATGTCAACATGAACAAAATGCCTGATGTTGCCATGACCCTTGCCGTTGTTGCACTCTTCGCTGATGGTCCAACTGCTATCAGAGATGTGGCTTCCTGGAGAGTAAAGGAAACCGAAAGGATGGTTGCAATTCGGACCGAGCTAACAAAGCTGGGAGCATCGGTTGAAGAAGGTCCTGACTACTGCATCATCACCCCACCGGAGAAGCTGAACATCACGGCAATCGACACCTACGATGATCACAGGATGGCCATGGCCTTCTCCCTCGCTGCCTGCGCCGACGTGCCCGTGACGATCAGGGACCCTGGTTGCACCCGCAAGACCTTCCCCAACTACTTCGACGTTCTAAGCACTTTCGTCAGGAACTGA

Legend:
[1] = test system: E. coli (EPSPS gene-and-C-P lyase genes-deleted strain); assay: glyphosate resistance testing of Glycine max EPSPS mutant gene: growth of transformed E. coli on culture media containing glyphosate; type: cell-based; design: key: saturation index=0, no growth; saturation index=1, minor growth; saturation index=2, growth to half-saturation; saturation index=3, vigorous growth, but still not saturated; saturation index=4, rapid growth, meaning the strains have reached the maximum (saturation) concentration or the growth has reached the limit; conditions: E. coli transformed with the gene
Method: (§1) For glyphosate resistance testing of Oryza sativa EPSPS mutant gene, E. coli (EPSPS gene-and-C-P lyase genes-deleted strain) respectively transformed with OsEM gene (experimental group) and OsE gene (control group) were inoculated to culture media containing 0 mM, 1 mM, 5 mM, 10 mM, 20 mM, 50 mM and 100 mM glyphosate to see the growth of E. coli (indicated by growth saturation index: saturation index=0, no growth; saturation index=1, minor growth; saturation index=2, growth to half-saturation; saturation index=3, vigorous growth, but still not saturated; saturation index=4, rapid growth, meaning the strains have reached the maximum (saturation) concentration or the growth has reached the limit).
For glyphosate resistance testing of Glycine max EPSPS mutant gene, E. coli (EPSPS gene-and-C-P lyase genes-deleted strain) respectively transformed with GmEM gene (experimental group) and GmE gene (control group) were inoculated to culture media containing 0 mM, 1 mM, 5 mM, 10 mM, 20 mM, 50 mM and 100 mM glyphosate to see the growth of E. coli.

[2] = test system: E. coli (EPSPS gene-and-C-P lyase genes-deleted strain); assay: glyphosate resistance testing of Oryza sativa EPSPS mutant gene: growth of transformed E. coli on culture media containing glyphosate; type: cell-based; design: key: saturation index=0, no growth; saturation index=1, minor growth; saturation index=2, growth to half-saturation; saturation index=3, vigorous growth, but still not saturated; saturation index=4, rapid growth, meaning the strains have reached the maximum (saturation) concentration or the growth has reached the limit; conditions: E. coli transformed with the gene
Method: A plurality of the above obtained mutant strains were inoculated on a plurality of screening culture media with different concentrations of glyphosate, respectively (the screening culture media contained different concentrations of glyphosate, and the glyphosate concentrations contained in them were 10 mM, 20 mM, 50 mM, etc., respectively, having a gradient in glyphosate concentrations, and of course, the glyphosate concentration may be set as required), and cultured at 37° C. overnight. The screening culture media were obtained by using M9 as a basal medium, to which certain concentrations of antibiotics, including Specs (Spectinomycin), Gen (Gentamycin) and Amp (Ampicillin), and different concentrations of glyphosate were added. M9 culture medium consists of the following ingredients: 13˜14 g/L of Na2HPO4, 5.7˜6.3 g/L of KH2PO4, 0.9˜1.1 g/L of NaCl, 1.8˜2.2 g/L of NH4Cl, 37˜43 g/L of glucose, 48˜52 g/L of MgSO4.7H2O and 21˜23 g/L of CaCl2.
as §1

[3] = culture medium with 0 mM glyphosate
[4] = culture medium with 1 mM glyphosate
[5] = culture medium with 5 mM glyphosate
[6] = culture medium with 10 mM glyphosate
[7] = culture medium with 20 mM glyphosate
[8] = culture medium with 50 mM glyphosate
[9] = culture medium with 100 mM glyphosate

Molecule	Growth saturation index [1, 3]	Growth saturation index [1, 4]	Growth saturation index [1, 5]	Growth saturation index [1, 6]	Growth saturation index [1, 7]	Growth saturation index [1, 8]	Growth saturation index [1, 9]	Growth saturation index [2, 3]	Growth saturation index [2, 4]	Growth saturation index [2, 5]	Growth saturation index [2, 6]	Growth saturation index [2, 7]	Growth saturation index [2, 8]	Growth saturation index [2, 9]
B1	4	cannot grow normally and 0	cannot grow normally and 0	cannot grow normally and 0	cannot grow normally and 0	cannot grow normally and 0	0							
B2								4	0	0	0	0	0	0

Source: patent US10961546B2, “Glyphosate-resistant gene screening method, EPSPS mutant gene and deficient strain and use” (GEVOTO LLC, priority 2016, dated 2021)
